# Data from paper PMC11872457 (2025).
# B1: CoV-YL8 TCR (TCR)
# alpha TRAV1-1 TRAJ4 CDR3: CAVRGISGGYNKLIF
# beta TRBV19 TRBJ1-6 CDR3: CASSIEGSYNSPLHF
# Target: T1, SARS-CoV-2 replicase polyprotein 1ab (CoV-YL8; identical in HKU1 and NL63) peptide on HLA-B*35:03 (human)
# T1 peptide: YPDPSRIL
# Assay: cytokine release
binder,measurement,value
B1,binding result,recognises
